Source: US12357692B2, “Method of treating influenza A” (MEDIMMUNE, LLC, priority 2016, dated 2025)

Tests used:
[1] = Anti-drug antibody (ADA) responses in serum, electrochemiluminescent solution-phase bridging immunoassay; format: in vivo, human; conditions: Days 15, 29 and 101 after single IV dose
Text: Blood samples were collected at Days 15(±1), 29(±2) and 101(±5) to evaluate anti-drug antibody (ADA) responses to MEDI8852 in serum using an electrochemiluminescent, solution-phase, bridging immunoassay. All ADA results were negative (i.e., no anti-drug antibody was found).

[2] = in vivo
[3] = test system: influenza A virus infection; conditions: human, in vivo, iv

With “MEDI8852: human IgG1 kappa monoclonal antibody that binds the conserved stalk region of influenza HA protein; VH SEQ ID NO:2, VL SEQ ID NO:7” the “anti-drug antibody (ADA) results” value [1] was “negative”, the “half-life following a single IV dose” value ([2]; human, iv) was 19.4 to 22.6 days and the PK dose linearity [2] was “dose-linear”. For the same substance, the efficacy [3] was “better than oseltamivir alone”.
